Source: doi:10.1101/2022.07.10.499479
pKd: −log10 of the molar value. Where two headings read alike, the source gives them in different places.

Columns and labels:
[1] = biological target: membrane-anchored iLID (improved Light Induced Dimerization protein with an N-terminal TatA-derived transmembrane helix) (Avena sativa)
[2] = biological target: membrane-anchored iLID (improved Light Induced Dimerization protein with an N-terminal TatA-derived transmembrane helix) (Avena sativa); remark: listed apart in the source
[3] = biological target: membrane-anchored iLID (improved Light Induced Dimerization protein with an N-terminal TatA-derived transmembrane helix) (Avena sativa); assay: 3D single-molecule tracking in live cells
[4] = biological target: membrane-anchored iLID (improved Light Induced Dimerization protein with an N-terminal TatA-derived transmembrane helix) (Avena sativa); assay: 3D single-molecule tracking in live cells; remark: listed apart in the source
[5] = biological target: membrane-anchored iLID (improved Light Induced Dimerization protein with an N-terminal TatA-derived transmembrane helix) (Avena sativa); assay: 3D single-molecule tracking in live cells; remark: listed apart in the source
[6] = biological target: membrane-anchored iLID (improved Light Induced Dimerization protein with an N-terminal TatA-derived transmembrane helix) (Avena sativa); assay: 3D single-molecule tracking in live cells; remark: listed apart in the source

Row | median bound time t (bound) [1] | fraction of molecules at the membrane [2] | fraction slowly diffusing (iLID-associated) [3] | fraction slowly diffusing (iLID-associated) [4] | fraction iLID-associated [5] | fraction iLID-associated [6] | pKd [3] | fold increase in affinity upon 488 nm illumination against before [3] | fraction iLID-associated [3] | Substance
1 | 350 ms | > 80% | 48% | 56% | – | – | – | – | – | SspB_(nano)-Halo labelled with JFX549
2 | 300 ms | – | – | – | 48% | 31% | 6.29 | 2 fold | 45% | SspB_(micro)-Halo labelled with JFX549
3 | 175 ms | – | – | – | – | 6% | – | – | 7% | SspB_(milli)-Halo labelled with JFX549
